Where no end group is shown, it is not given here.
How the values were obtained:
[1] = biological target: T1, Aβ (Homo sapiens, UniProt P05067); assay: Solid-phase binding ELISA of tPA, plasminogen and plasmin to coated Aβ; conditions: Aβ coated onto plastic 96-well plates
T1 construct: Peptide Aβ (1-40), containing amino acids as present in the described human Alzheimer peptide; purchased Pepscan, Inc. or peptide synthesis facility of the Netherlands Cancer Institute; host or cells: chemical synthesis
Experimental: FIG. 3 is a set of graphs depicting binding of tPA, plasminogen and plasmin to Aβ. Aβ was coated onto plastic 96-well plates. Increasing concentrations of either (A) tPA or (B) plasmin(ogen) were allowed to bind to the immobilized peptide. After extensive washing, tPA and plasmin(ogen) binding was assessed by enzyme-linked immunosorbent assays using anti-tPA and anti-plasminogen antibodies. Binding of (C) tPA and (D) plasmin to Aβ in the presence of 50 mM ε-aminocaproic acid (ε-ACA) was assessed as in A and B.
To test whether tPA, plasminogen and plasmin bind Aβ, solid-phase binding assays were performed. Aβ was coated onto plastic 96-well plates and binding of the peptide to either plasmin(ogen) or to tPA was assessed by overlaying the coated peptide with increasing concentrations of either tPA, plasminogen or plasmin. Binding was assessed using specific antibodies to either plasmin(ogen) or to tPA by performing ELISA. […] However, activated plasminogen (plasmin) does bind to Aβ and does so with a kD of 47 nM. […] To test this, use was made of the lysine analogue ε-aminocaproic acid (εACA) and binding of plasmin and tPA to Aβ was tested in its presence. […] In contrast, εACA has no effect on the tPA-Aβ interaction (FIG. 3, Panel C). Thus, it was concluded that plasmin binds to free lysines that were generated during the incubation period, presumably via its lysine-binding Kringle domain(s). In line with this, the kD of plasminogen Kringle domain binding to free lysines in fibrin is similar to the kD for plasmin binding to Aβ.

[2] = test system: differentiated N1E-115 cells; assay: N1E-115 cell detachment (methylene blue staining); assay type: cell-based, mouse; conditions: 24 hours
Experimental: FIG. 4 is a set of graphs illustrating stimulation of tPA-mediated plasmin formation by Aβ and synergistic stimulation of cell detachment by plasminogen and Aβ. Panel A depicts that plasminogen (200 μg/ml) and tPA (200 pM) were incubated with Aβ (5 μM) or control buffer. Samples were taken from the reaction mixture at the indicated periods of time and plasmin activity was measured by conversion of the chromogenic plasmin substrate S-2251 at 405 nm. […] After 48 hours, the dead cells were washed away and the remaining adherent cells were stained with methylene blue. Plasmin cannot prevent Aβ-induced cell detachment. Panel C illustrates that N1E-115 cells were differentiated and received the indicated concentrations of plasminogen in the presence or absence of 10 μM Aβ. After 24 hours, cell detachment was assessed. […] Panel D is an immunoblot analysis of plasmin formation and laminin degradation. Differentiated N1E-115 cells were treated with or without Aβ (10 μM) in the absence or presence of added plasminogen. Addition of Aβ results in the formation of plasmin (bottom panel) and in degradation of laminin (top panel).
FIG. 5 depicts graphs illustrating that carboxypeptidase B inhibits Aβ-stimulated tPA-mediated plasmin formation and cell detachment. […] Samples were taken from the reaction mixture at the indicated periods of time and plasmin activity was measured by conversion of the chromogenic plasmin substrate S-2251 at 405 nm. The reaction was performed in the absence or the presence of 50 μg ml^−1 carboxypeptidase B (CpB) and in the absence or presence of 3.5 μM carboxypeptidase inhibitor (CPI). CpB greatly attenuates A-stimulated plasmin formation. […] After 24 hours, the cells were photographed. Panel C illustrates that, subsequently, the cells were washed once with PBS and the remaining cells were quantified as percentage-adhered cells by methylene blue staining. In Panel D, the cells were treated as in Panels B and C and medium and cell fractions were collected and analyzed by Western blot using an anti-plasmin(ogen) antibody. Aβ stimulates plasmin formation that is inhibited by CpB.
N1E-115 mouse neuroblastoma cells were routinely cultured in DMEM containing 5% FCS, supplemented with antibiotics. Cells were differentiated into post-mitotic neurons.^52 The cells were exposed to Aβ (50 μg ml^−1) for 24 hours in the presence or absence of 20 μg ml^−1 plasminogen in the presence or absence of 50 μg ml^−1 CpB. Cells were photographed, counted and lysed by the addition of 4× sample buffer (250 mM Tris pH 6.8, 8% SDS, 10% glycerol, 100 mM DTT, 0.01% w/v bromophenol blue) to the medium. The lysate, containing both adherent and floating (presumably dying and/or dead) cells, as well as the culture medium, were analyzed for the presence of plasminogen and plasmin, as well as for laminin, by Western blot analysis using specific antibodies against plasminogen (MoAb 3642, American Diagnostics), laminin (PoAb L9393, Sigma).

[3] = biological target: T2, tPA (Homo sapiens, UniProt P00750); assay: ELISA: binding of tPA to 86-week glycated albumin-AGE preparations; conditions: albumin incubated 86 weeks; 10 mM εACA
T2 construct: purchased Boehringer-Ingelheim (Germany)
Experimental: Binding of the cross-B structure marker tPA to albumin-AGE was tested using an ELISA setup. […] Therefore, we used tPA binding to these two peptides as positive control. The 86-week glycated samples and controls were coated to Greiner microlon plates (catalogue #655092, Greiner, Frickenhausen, Germany). Wells were blocked with Superblock (Pierce, Rockford, Ill., USA). All subsequent incubations were performed in PBS/0.1% (v/v) Tween 20 for one hour at room temperature while shaking, with volumes of 50 μl per well. After incubation, wells were washed five times with 300 μl PBS/0.1% (v/v) Tween 20. Increasing concentrations of tPA were added in triplicate to coated wells as well as to control wells. During tPA incubations of 86-week incubated samples, at least a 123,000 times molar excess of ε-amino caproic acid (εACA, 10 mM) was added to the solutions. εACA is a lysine analogue and is used to avoid potential binding of tPA to albumin via its kringle 2 domain.^50 Monoclonal antibody 374b (American Diagnostica, Instrumentation laboratory, Breda, The Netherlands) and, subsequently, RAMPO (Dako diagnostics, Glostrup, Denmark) was added to the wells at a concentration of 0.3 μg ml^−1. Bound peroxidase-labeled antibody was visualized using 100 μl of a solution containing 8 mg ortho-phenylene-diamine in 20 ml 50 mM citric acid/100 mM Na2HPO4 pH 5.0 with 0.0175% (v/v) H2O2. Staining was stopped upon adding 50 μl of a 2 M H2SO4 solution. Absorbance was read at 490 nm on a Vmax kinetic microplate reader (Molecular Devices, CA, USA). Background signals from non-coated control wells were substracted from corresponding coated wells.

[4] = Circular dichroism: percentage β-sheet (k2d software); assay type: physicochemical
Experimental: UV circular dichroism (CD) spectra of peptide and protein solutions ([…] in H2O) were measured on a JASCO J-810 CD spectropolarimeter (Tokyo, Japan). Averaged absorption spectra of five or ten single measurements from 190-240 nm or from 190-250 nm, for fibrin peptides 85, 86, 87 or for albumin, glycated albumin and human Aβ (16-22), respectively, are recorded. The CD spectrum of Aβ (16-22) was measured as a positive control. Aβ (16-22) readily adopts amyloid fiber conformation with cross-β structure when incubated in H2O^45. For albumin and Aβ (16-22), relative percentage of the secondary structure elements present was estimated using k2d software.^48

[5] = biological target: T3, tPA-mediated plasminogen activation (Homo sapiens, UniProt P00750); assay: Plasminogen activation assay; assay type: biochemical; conditions: plasminogen 200 μg ml−1, tPA 200 pM, 5 μM co-factor, S-2251
T3 construct: purchased Boehringer-Ingelheim (Germany)
Experimental: Plasminogen (200 μg ml^−1) was incubated with tPA (200 pM) in the presence or the absence of a co-factor (5 μM of either endostatin, Aβ (1-40), or one the fibrin-derived peptides 85, 86 and 87). At the indicated time intervals, samples were taken and the reaction was stopped in a buffer containing 5 mM EDTA and 150 mM εACA. After collection of the samples, a chromogenic plasmin substrate S-2251 was added and plasmin activity was determined kinetically in a spectrophotometer at 37° C.

[6] = biological target: T4, Aβ fibrils (Homo sapiens, UniProt P05067); assay: Amyloid pull-down with insoluble Aβ fibers; assay type: binding; conditions: conditioned BHK medium
T4 construct: Peptide Aβ (1-40), containing amino acids as present in the described human Alzheimer peptide; purchased Pepscan, Inc. (The Netherlands) or peptide synthesis facility at the Netherlands Cancer Institute; host or cells: synthetic peptide
Experimental: Conditioned medium of BHK cells expressing GST-tagged tPA F, F-EGF, EGF, K1, F-EGF-K1, FXII F, HGFa F, Fn F4, Fn F5, Fn F4-5 and GST was used for amyloid binding assays. At first, constructs were adjusted to approximately equal concentration using Western blots. Qualitative binding of the recombinant fragments were evaluated using a “pull-down” assay. To this end, the recombinantly made fragments were incubated with either Aβ or IAPP fibrils. Since these peptides form insoluble fibers, unbound proteins can be easily removed from the fibers following centrifugation. The pellets containing the bound fragments were subsequently washed several times. Bound fragments were solubilized in SDS-sample buffer and analyzed by PAGE, as were unbound proteins in the supernatant fraction and starting material. The gels were analyzed using immunoblotting analysis with the anti-GST antibody Z-5.

T2 sequence (P00750 36-562): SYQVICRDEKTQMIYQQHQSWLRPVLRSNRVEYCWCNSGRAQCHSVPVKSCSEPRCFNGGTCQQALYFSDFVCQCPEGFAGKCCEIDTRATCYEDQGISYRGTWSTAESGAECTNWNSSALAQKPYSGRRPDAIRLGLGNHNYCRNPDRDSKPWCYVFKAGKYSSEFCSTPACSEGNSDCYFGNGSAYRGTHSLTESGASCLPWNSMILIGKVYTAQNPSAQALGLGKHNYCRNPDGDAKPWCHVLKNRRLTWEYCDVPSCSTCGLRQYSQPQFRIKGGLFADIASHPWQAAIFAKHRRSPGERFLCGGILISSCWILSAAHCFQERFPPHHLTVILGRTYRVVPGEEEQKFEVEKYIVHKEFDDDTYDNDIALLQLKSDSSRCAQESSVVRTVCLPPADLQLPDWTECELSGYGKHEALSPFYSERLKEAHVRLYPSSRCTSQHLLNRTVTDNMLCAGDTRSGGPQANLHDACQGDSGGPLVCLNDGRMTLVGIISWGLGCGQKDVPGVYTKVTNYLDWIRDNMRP
T3 sequence (P00750 36-562): as above
T4 sequence (P05067 672-711): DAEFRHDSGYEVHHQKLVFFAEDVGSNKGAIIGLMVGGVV
T1 sequence (P05067 672-711): as above

Q: For “plasminogen: inactive precursor of plasmin, cleaved by tPA”, which “binding to Aβ” value [1] is on record?
A: No detectable binding

Q: What about the “cell adhesion in the absence of Aβ” value [2] of the same molecule?
A: no effect

Q: What about the “minimal levels required to potentiate Aβ-induced cell detachment” value [2] of the same molecule?
A: 10 to 20 µg/mL

Q: And the “effect on Aβ-induced cell detachment” value ([2]; suboptimal Aβ (10 μM), low plasminogen)?
A: dramatic potentiating effect

Q: With “Albumin-glyceraldehyde: glyceraldehyde-modified albumin” as the molecule, how does the “binding of amyloid-specific serine protease tPA” value [3] read?
A: bound specifically

Q: And the “β-sheet (%)” value ([4]; incubation time 2 weeks)?
A: 0%

Q: For “Aβ (16-22): human Aβ fragment, positive control that adopts amyloid fiber conformation (KLVFFAE) [reference compound]”, which “β-sheet (%)” value ([4]; no incubation time given) is on record?
A: 100%

Q: With “albumin-glyoxylic acid: albumin incubated 86 weeks with 500 mM glyoxylic acid/100 mM NaCNBH3” as the molecule, how does the “binding of amyloid-specific serine protease tPA” value [3] read?
A: No tPA binding

Q: Which “stimulation of tPA-mediated plasmin formation” value (“stimulation” below) [5] does the source give for “KRLEVDIDIK (Peptide FP10 from Homo sapiens) [compound 87]” here?
A: does not

Q: For “SNNLGPVLPP (Peptide Delta mIAPP from Homo sapiens) [Δ-mIAPP]”, which “stimulation” value [5] is on record?
A: not

Q: Which “binding of amyloid-specific serine protease tPA” value [3] does the source give for “KCNTATCATQRLANFLVHSSNNFGAILSSTNVGSNTY (Peptide fl-hIAPP from Homo sapiens)” here?
A: bound specifically

Q: What about the “stimulation” value [5] of the same molecule?
A: stimulate

Q: And the “stimulation” value ([5]; listed as IAPP)?
A: enhanced

Q: For “KRLEVDIDIKIRS (Peptide FP13 from Homo sapiens) [compound 85]”, which “stimulation” value [5] is on record?
A: stimulate

Q: Which “β-sheet (%)” value ([4]; incubation time 2 weeks) does the source give for “Albumin control: albumin incubated with g6p or glyceraldehyde omitted [reference compound]” here?
A: 0%

Q: And the “β-sheet (%)” value ([4]; incubation time 23 weeks)?
A: 0%

Q: Which “stimulation” value [5] does the source give for “KRLEVDIDIKIR (Peptide FP12 from Homo sapiens) [compound 86]” here?
A: stimulate

Q: For “EGF-GST: EGF fragment of human tPA with C-terminal GST tag (CSEPRCFNGGTCQQALYFSDFVCQCPEGFAGKCCEID-{GST}; cysteine pairing not given here)”, which “binding to Aβ fibers (pull-down, Western blot)” value (shortened to “binding to Aβ fibers”) [6] is on record?
A: remain in the supernatant

Q: With “SNNFGAILSS (Peptide Delta hIAPP from Homo sapiens) [Δ-hIAPP]” as the molecule, how does the “stimulation” value [5] read?
A: stimulate

B1: K1-GST: K1 fragment of human tPA with C-terminal GST tag (protein)
chain: TRATCYEDQGISYRGTWSTAESGAECTNWNSSALAQKPYSGRRPDAIRLGLGNHNYCRNPDRDSKPWCYVFKAGKYSSEFCSTPACSE
modifications: left off: small tags and cut ends; a dimerising Fc or GST
notes: K1 fragment of human tPA with C-terminal GST tag
Q: With B1 as the molecule, how does the “binding to Aβ fibers” value [6] read?
A: remain in the supernatant

B2: F-EGF-K1-GST: F-EGF-K1 fragment of human tPA with C-terminal GST tag (protein)
chain: SYQVICRDEKTQMIYQQHQSWLRPVLRSNRVEYCWCNSGRAQCHSVPVKSCSEPRCFNGGTCQQALYFSDFVCQCPEGFAGKCCEIDTRATCYEDQGISYRGTWSTAESGAECTNWNSSALAQKPYSGRRPDAIRLGLGNHNYCRNPDRDSKPWCYVFKAGKYSSEFCSTPACSE
modifications: left off: small tags and cut ends; a dimerising Fc or GST
notes: F-EGF-K1 fragment of human tPA with C-terminal GST tag
Q: Which “binding to Aβ fibers” value [6] does the source give for B2 here?
A: Efficient binding

Reference: US8158585B2, “Cross-β structure comprising amyloid-binding proteins and methods for detection of the cross-β structure, for modulating cross-β structures fiber formation and modulating cross-β structure-mediated toxicity” (CrossBeta Biosciences B.V., priority 2002, dated 2012)
